The results in this text go back to patent publication US20100150906A1 (AC IMMUNE S A, published 2010).

The target of one experiment is T1, amyloid beta 1-42 fibers (UniProt P05067 672-713).
T1 construct: domain: amyloid beta 1-42; Many copies per fiber; also called Aβ1-42 fibers; fibrillar Aβ1-42
In words: SPR (BIACORE), Aβ1-42 fibers immobilized on CM5 chip, antibody 0.05-1.0 µM. The method, then:
(§1) BIACORE® technology utilizes changes in the refractive index at the surface layer upon binding of the antibody to the antigen immobilized on the layer. Binding is detected by surface plasmon resonance (SPR) of laser light refracting from the surface. Analysis of the signal kinetics on rate and off rate allows the discrimination between non-specific and specific interaction. The concentration of antibody used was in the range of 0.05 μM to 1.0 μM.

Experiment [1] deals with T2, amyloid beta 1-42 monomers (UniProt P05067 672-713).
T2 construct: domain: amyloid beta 1-42; also called Aβ1-42 monomers; amyloid monomers
In words: SPR (BIACORE), Aβ1-42 monomers immobilized on CM5 chip, antibody 0.05-1.0 µM. The method, then:
as §1

In experiment [2] the target is T3, Amyloid Beta (antigen of the Amyloid Beta ELISA) (UniProt P05067 672-713, limits assumed). In words: Amyloid Beta ELISA, conditioned medium from transient transfection. Background: In an ELISA, binding on a coated surface is turned into a signal by an enzyme label.
Experiment [3] has as its target T3, Amyloid Beta (antigen of the Amyloid …). In words: Amyloid Beta ELISA, purified antibodies.

T2 sequence (P05067 672-713 limits assumed): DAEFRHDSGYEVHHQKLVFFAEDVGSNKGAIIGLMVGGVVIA
T1 sequence (P05067 672-713 limits assumed): as above
T3 sequence (P05067 672-713 limits assumed): as above

B1: chimeric antibody C2 ChVH AF/ChVK (antibody, human IgG4 S228P, kappa, V domains shown)
VH: EVQLVESGGGLVQPGGSLKLSCAASGFTFSSYGMSWVRQTPDKRLELVASINSNGGSTYYPDSVKGRFTISRDNAKNTLYLQMSSLKSEDTAMYYCASGDYWGQGSTLTVSS
VL: DVVMTQTPLSLPVSLGDQASISCRSSQSLVYSNGDTYLHWYLQKPGQSPKLLIYKVSNRFSGVPDRFSGSGSGTDFTLKISRVEAEDLGVYFCSQSTHVPWTFGGGTKLEIKR
notes: also called C2 VH AF/C2 VK chimeric antibody; chimeric AF
In the experiment with amyloid beta 1-42 fibers, B1 came in with a Kd of 6.5 nM, a dissociation rate constant (koff) of 0.00033 s⁻¹ and a kon of 51000 M⁻¹ s⁻¹. In experiment [1], the Kd was determined as 20 nM, the koff was 0.00095 s⁻¹ and the kon amounted to 47000 M⁻¹ s⁻¹.

B2: C2 HuVH AF version 3 combined with the chimeric C2 kappa chain (antibody, V domains shown)
VH: EVQLVESGGGLVQPGGSLRLSCAASGFTFSSYGMSWVRQAPGKGLELVASINSNGGSTYYPDSVKGRFTISRDNAKNSLYLQMNSLRAEDTAVYYCARGDYWGQGTTVTVSS
VL: DVVMTQTPLSLPVSLGDQASISCRSSQSLVYSNGDTYLHWYLQKPGQSPKLLIYKVSNRFSGVPDRFSGSGSGTDFTLKISRVEAEDLGVYFCSQSTHVPWTFGGGTKLEIK
notes: Transient expression in HEK293; also called C2HuVHAF3/ChVK
Turning to B2, in experiment [2], the binding result is recorded as “no binding”.

B3: humanized antibody C2HuVH4/HuVK1 (antibody, human IgG4 S228P, kappa, V domains shown)
VH: EVQLVESGGGLVQPGGSLRLSCAASGFTFSSYGMSWVRQAPGKGLELVASINSNGGSTYYPDSVKGRFTISRDNAKNSLYLQMNSLRAEDTAVYYCASGDYWGQGTTVTVSS
VL: DIVMTQSPLSLPVTPGEPASISCRSSQSLVYSNGDTYLHWYLQKPGQSPQLLIYKVSNRFSGVPDRFSGSGSGTDFTLKISRVEAEDVGVYYCSQSTHVPWTFGQGTKVEIKR
notes: also called H4K1; humanized H4K1
In the experiment with amyloid beta 1-42 fibers, B3 showed a Kd of 4.7 nM, a koff of 0.00023 s⁻¹ and a kon of 49000 M⁻¹ s⁻¹. In experiment [1], this molecule came in with a Kd of 19 nM, a koff of 0.00095 s⁻¹ and a kon of 50000 M⁻¹ s⁻¹.

B4: humanized antibody C2 HuVH2/HuVK3 (antibody, human IgG4 S228P, kappa, V domains shown)
VH: EVQLVESGGGLVQPGGSLRLSCAASGFTFSSYGMSWVRQAPGKGLEWVASINSNGGSTYYPDSVKGRFTISRDNAKNSLYLQMNSLRAEDTAVYYCASGDYWGQGTTVTVSS
VL: DIVMTQSPLSLPVTPGEPASISCRSSQSLVYSNGDTYLHWYLQKPGQSPKLLIYKVSNRFSGVPDRFSGSGSGTDFTLKISRVEAEDVGVYYCSQSTHVPWTFGQGTKVEIKR
notes: also called C2HuVHAF2 with C2HuVK3
As to B4, the “fold reduction of binding activity against chimeric control antibody C2 ChVHAF/ChVK” value in experiment [3] was approximately 2 fold.

By Kd is commonly meant the free concentration of one partner at which half of the binding sites on the other are occupied at equilibrium, for simple one-to-one binding. A lower Kd goes with tighter binding. A word on the koff: it is the rate constant with which the complex falls apart. In general, kon refers to the second-order rate constant of association.
